Tests used:
NCI-H460 cells [1] = test: Assay of killing activity on lung cancer cell line (crystal violet, IC50); type: cell-based, human
Description: The NCI-H460 cells (ATCC) were cultured in flasks until logarithmic growth phase, digested with 0.25% trypsin (Amresco), collected by centrifugation (1000 rpm, 5 min), resuspended in RPMI1640 medium (Invitrogen) containing 3% fetal bovine serum (FBS), counted and adjusted to 1.5×10^5/ml cell suspension, added into 96-well culture plates (Nunc) at 100 μl/well, and incubated at 37° C. in 5% CO2 incubator overnight. The sample to be tested was diluted to a certain concentration with 1640 medium containing 3% FBS, and further diluted at 4-fold dilutions (8 dilutions). The supernatant in the culture plate was discarded, and serial dilutions of the sample to be tested was added into the plate at 100 μl/well with a negative control and blank control set aside, incubated at 37° C. under 5% CO2 for 20-24 hours. Following examination under microscope, the supernatant was discarded, each well was added 50 μl 0.05% crystal violet solution (50 mg crystal violet was dissolved in 20 ml anhydrous ethanol, and water was added to the volume of 100 ml, then stored at room temperature) and stained for 3-5 minutes. The crystal violet was carefully washed with flowing water, the remaining water was removed by spin-drying, a destaining solution (50 ml distilled water, 50 ml anhydrous ethanol, and 0.1 ml glacial acetic acid were thoroughly mixed and stored at room temperature) was added at 100 μl/well, then the reading at OD570 was measured on a microplate reader (Bio-Rad 680) (reference wavelength of 630 nm). The inhibitory concentration 50 (IC50) of each sample was calculated by a four-parameter Logistic fitting using Sigmaplot10.0 software. The IC50 for CPT and each mutant of NCPT-1, NCPT-2, and NCPT-3 were calculated, and the activity change of each mutant was represented as a ratio of the IC50 of each mutant to that of CPT (Table 1).

NCI-H460 cells [2] = test: Internucleosomal DNA fragmentation (agarose gel electrophoresis); type: cell-based, human; settings: 15 ng/ml, 2 hours
Description: FIG. 5. The agarose gel electrophoresis analysis of internucleosomal DNA fragmentation of NCI-H460 cells after incubated with NCPT-1.M1 for varying time.
Marker: 200 bp-2000 bp DNA markers with 200 bp interval;
Control: solvent control;
2 h, 4 h, 6 h: represent incubation with 15 ng/ml NCPT-1.M1 for 2 h, 4 h, 6 h, respectively.
NCI-H460 cells at logarithmic growth phase were incubated with NCPT-1.M1 (a final concentration of […]) for 2 h, 4 h, 6 h, and the medium control group was not added with NCPT-1.M1. All adherent and floating cells (approximately 5×10^6) were collected, and DNA was extracted (Wen Jinkun, Principles and experimental techniques of medical molecular biology, 236-237 (1999)). DNA sample was removed and mixed with 6× loading buffer, and subjected to 1.8% agarose gel (a final concentration of ethidium bromide of 0.5 μg/ml) electrophoresis. The gel was observed under ultraviolet light source and photographed, and analyzed for DNA fragmentation. […] To the contrary, in the DNA electrophoresis of the medium control group, a band corresponding to a macromolecule is very near to the loading well, and there is no DNA fragmentation ladder. With the increasing incubation time with NCPT-1.M1, the DNA ladder becomes weaker and vague, and is illegible (FIG. 5), which might be due to DNA being degraded into smaller fragments.

H460 cells [3] = test: Time-effect relationship in killing lung cancer cell line (phase contrast morphology); type: cell-based, human; settings: 50 ng/ml
Description: FIG. 1. Observation of the killing effect of NCPT-1.M1 on H460 cells under phase contrast microscope.
At 37° C., H460 cells (ATCC) were adherently cultured to logarithmic growth phase in RPMI1640 medium containing 10% FBS in cell culture flask in 5% CO2 incubator.

[4] = test system: human MM RPMI8226 tumor cells; test: Apoptosis-inducing activity in vivo, RPMI8226 xenograft; set-up: species or system Balb/c nu athymic nude mice
Excerpt: Athymic nude mice were subcutaneously inoculated with human MM RPMI8226 tumor cells and treated with NCPT-1.M1, then tumor tissue was resected and subjected to conventional HE staining (A, B) and TUNEL staining of apoptotic cells (C, D).
Balb/c nu athymic nude mice (Beijing Huafukang Biotechnology Co., Ltd.) were subcutaneously inoculated with human MM RPMI8226 tumor cells. When the tumor grew to the volume of 700-800 mm3, the mice were divided into a control group (n=3) and a CPT treatment group (n=3), and were intraperitoneally injected with control or NCPT-1.M1 at a dose of 15 mg/kg once a day for 3 consecutive days. On day 4, the tumor volumes were measured (method same as the above), all animals were sacrificed, the tumors were resected and fixed in 10% formaldehyde solution. The tumor tissues were embedded in paraffin, cut into sections, and HE stained following the conventional methods. The apoptotic assay of the paraffin-embedded tissue sections were carried out following instructions of TUNEL Apoptosis Detection Kit (ZK-8005, Beijing Zhongshan Golden Bridge Biotechnology Co., Ltd.). […] To the contrary, the nucleus of normal cells are light blue or blue (FIG. 7A). Upon TUNEL staining, the nuclei of apoptotic cells are stained as brown (FIG. 7D).

[5] = test system: human multiple myeloma cell line U266; test: Combination with melphalan, cell survival (ATPlite); type: cell-based
Description: FIG. 9. […] U266 cells are insensitive to CPT. At the concentration of 1 μg/ml, NCPT-1.M1 alone has a mild killing effect on U266 (<20%), but with the presence of melphalan (12.5˜50 μg/ml), both of them can cause enhanced killing effect. The cell viability was assayed with ATPlite luminescent system (PerkinElmer), the data as shown in this figure are all represented as the mean±standard deviation, n=4, #P<0.05, ##P<0.01 vs. melphalan group; *P<0.05 vs. NCPT-1.M1 group.

H460 cells [6] = test: Cell survival by MTT assay with or without Caspase-8 inhibitor zIETD-fmk; type: cell-based, human; settings: 24 h
Description: H460 cells were incubated with NCPT-1.M1 (1.2 or 10 ng/ml) in the presence or absence of Caspase-8 inhibitor zIETD-fmk (concentration of 30 μmmol/L, added 1 h earlier than NCPT-1.M1) for 24 h, and then cell survival rate was measured by MTT assay.
H460 cells were incubated with NCPT-1.M1 of 1.2 ng/ml and 10 ng/ml (the culture method is same as the above) for 24 h, and cell survival rates measured by MTT assay were 60% and 16%, respectively. […] Caspase-8 inhibitor zIETD-fmk (Santa Cruz) was added, and 1 h later, 1.2 ng/ml or 10 ng/ml NCPT-1.M1 was added and co-incubated for 24 h, then, the resulting cell survival rates were 100% and 90%, respectively.

B1: NCPT-1.M1: MG+His6+NCPT-1 fusion protein, SEQ ID NO: 5 (protein)
chain: MGHHHHHHTLSSPNSKNEKALGRKINSWESSRSGHSFLSNLHLRNGELVIHEKGFYYIYSQTYFRFQEEIKENTKNDKQMVQYIYKYTSYPDPILLMKSARNSCWSKDAEYGLYSIYQGGIFELKENDRIFVSVTNEHLIDMDHEASFFGAFLVGGGGGGRVAAHITGTRGRSNT
modifications: NCPT-1.M1 polypeptide sequence
Question: Which results are given for B1?
Answer: Ratio of IC50 of mutants to IC50 of CPT (H460 cells) (NCI-H460 cells [1]; 20-24 hours, crystal violet): 0.1; killing activity compared to that of CPT (NCI-H460 cells [1]; based on IC50): significantly higher than that of CPT; DNA fragmentation ladder (NCI-H460 cells [2]): showed obvious ladder; incubation time for appearance of morphological apoptosis changes (H460 cells [3]): 1-2 h; incubation time resulting in apoptosis of maximum number of cells (H460 cells [3]): 6 h; average tumor volume after treatment ([4]; 15 mg/kg i.p. once a day for 3 consecutive days, day 4): 286 mm^3; apoptosis of tumor cells in tumor tissue (HE and TUNEL staining) ([4]; 15 mg/kg i.p. once a day for 3 days): can quickly result in apoptosis of a lot of MM tumor cells; average tumor volume before dosing ([4]; RPMI8226 xenograft, before dosing): 798 mm^3; killing effect ([5]; 1 μg/ml alone, U266): < 20%; sensitivity of the cell line ([5]; U266 / U266B1): insensitive; cell survival rate (H460 cells [6]; 1.2 ng/ml, 30 μmol/L zIETD-fmk added 1 h earlier): 100%; cell survival rate (H460 cells [6]; 1.2 ng/ml, no inhibitor): 60%; cell survival rate (H460 cells [6]; 10 ng/ml, 30 μmol/L zIETD-fmk added 1 h earlier): 90%; cell survival rate (H460 cells [6]; 10 ng/ml, no inhibitor): 16%
